Biological target: the molecule itself
Assay: gel filtration on G100 Sephadex; self-association (homodimer)

B1: FlaA1 from Helicobacter pylori carrying a N-terminal hexahistidine tag (enzyme)
chain: MHHHHHHGSMSMPNHQNMLDNQTILITGGTGSFGKCFVRKVLDTTNAKKIIVYSRDELKQSEMAMEFNDPRMRFFIGDVRDLERLNYALEGVDICIHAAALKHVPIAEYNPLECIKTNIMGASNVINACLKNAISQVIALSTDKAANPINLYGATKLCSDKLFVSANNFKGSSQTQFSVVRYGNVVGSRGSVVPFFKKLVQNKASEIPITDIRMTRFWITLDEGVSFVLKSLKRMHGGEIFVPKIPSMKMTDLAKALAPNTPTKIIGIRPGEKLHEVMIPKDESHLALEFEDFFIIQPTISFQTPKDYTLTKLHEKGQKVAPDFEYSSHNNNQWLEPDDLLKLL
notes: Full-length FlaA1 with an N-terminal hexahistidine tag, overexpressed in E. coli (pET system) and purified; also called HP0840; His-FlaA1
binding result: binds
